This is an account of results in patent publication US20250312467A1.

The target in the experiment is Her2 (UniProt P04626). Briefly: cell-based or functional assay.

“antibody-payload conjugate (ADC, trastuzumab-DM1 conjugate)” gave an IC50, in vitro cytotoxicity on BT474 cells of 29.6 ng/mL and an IC50, in vitro cytotoxicity on NCI-N87 cells of 82.1 ng/mL.
